The source of these data is patent US20240059797A1 (GRITSTONE BIO, published 2024).

The target in the experiment is T1, HLA-A*01:01_… (HLA-PEPTIDE target G2), recombinant biotinylated complex (human, enzymatically biotinylated (BirA)).
T1 construct: also called G2-pHLA
Kind of experiment: phage panning, scFv ELISA. (ELISA stands for enzyme-linked immunosorbent assay.)

Changes are numbered by the printed parent chain.
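Note: scFv binders from three to four bead panning rounds, tested as PPEs by ELISA on streptavidin plates carrying peptide-HLA complex (2 µg/ml), detected via anti-V5 and HRP anti-mouse.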

Procedure: Phage library screening was carried out according to the overall screening design described above. Three to four rounds of bead-based panning were performed to identify scFv binders to each peptide-HLA complex. For each round of panning, an aliquot of starting phage was set aside for input titering and the remaining phage was depleted three times against Dynabead M-280 streptavidin beads (Life Technologies) followed by a depletion against Streptavidin beads pre-bound with 100 μmoles of pooled negative peptide-HLA complexes. For the first round of panning, 100 μmoles of peptide-HLA complex bound to streptavidin beads was incubated with depleted phage for 2 hours at room temperature with rotation. Three five-minute washes with 0.5% BSA in 1×PBST (PBS+0.05% Tween-20) followed by three five-minute washes with 0.5% BSA in 1×PBS were utilized to remove any unbound phage to the peptide-HLA complex bound beads. To elute the bound phage from the washed beads, 1 ml 0.1M TEA was added and incubated for 10 minutes at room temperature with rotation. The eluted phage was collected from the beads and neutralized with 0.5 ml 1M Tris-HCl pH 7.5. The neutralized phage was then used to infect log growth TG-1 cells (OD₆₀₀=0.5) and after an hour of infection at 37° C., cells were plated onto 2YT media with 100 μg/ml carbenicillin and 2% glucose (2YTCG) agar plates for output titer and bacterial growth for subsequent panning rounds.
96-well and/or 384-well streptavidin coated plates (Pierce) were coated with 2 μg/ml peptide-HLA complex in HLA buffer and incubated overnight at 4° C. Plates were washed three times between each step with PBST (PBS+0.05%). The antigen coated plates were blocked with 3% BSA in PBS (blocking buffer) for 1 hour at room temperature. After washing, scFv PPEs were added to the plates and incubated at room temperature for 1 hour. Following washing, mouse anti-v5 antibody (Invitrogen) in blocking buffer was added to detect scFv and incubated at room temperature for 1 hour. After washing, HRP-goat anti-mouse antibody (Jackson ImmunoResearch) was added and incubated at room temperature for 1 hour.

B1: G2(2E07) scFv (scFv, V domains shown)
VH: QVQLVQSGAEVKKPGASVKVSCKASGGTFSSATISWVRQAPGQGLEWMGWIYPNSGGTVYAQKFQGRVTMTRDTSTSTVYMELSSLRSEDTAVYYCAATEWLGVWGQGTTVTVSS
VL: DIQMTQSPSSLSASVGDRVTITCRASQSISTWLAWYQQKPGKAPKLLIYAASSLRSGVPSRFSGSGSGTDFTLTISSLQPEDFATYYCQQSYNTPYTFGQGTKLEIK
Consider B1, for which the binding result is recorded as “binds”.

B2: G2(1F12) scFv (scFv, V domains shown)
VH: QVQLVQSGAEVKKPGASVKVSCKASGYTFTDYYMHWVRQAPGQGLEWMGWIYPNTGGTNYAQKFQGRVTMTRDTSTSTVYMELSSLRSEDTAVYYCARDYGGYVDYWGQGTLVTVSS
VL: B1 VL with R24Q, S28D, S30G, T31S, A51T, R55Q, N93S
As for B2, the binding result is reported as “binds”.

B3: G2(2C11) scFv (scFv, V domains shown)
VH: QVQLVQSGAEVKKPGASVKVSCKASGGTFNNYAFSWVRQAPGQGLEWMGWINPNSGGTNYAQKFQGRVTMTRDTSTSTVYMELSSLRSEDTAVYYCARDGVAVASDYWGQGTLVTVSS
VL: B1 VL with S28G, T31N, W32Y, S53T, R55Q, N93S, T94V, T97S
Turning to B3, the binding result is “binds”.

B4: G2(1C06) scFv (scFv, V domains shown)
VH: QVQLVQSGAEVKKPGASVKVSCKASGYTFTDYQMFWVRQAPGQGLEWMGWINPNSGGTNYAQKFQGRVTMTRDTSTSTVYMELSSLRSEDTAVYYCAKGGGGYGMDVWGQGTTVTVSS
VL: B1 VL with S28G, T31N, W32Y, R55Q, N93S, T94D, P95Q, Y96W, L104V
Take B4: the binding result was “binds”.

B5: G2(2H11) scFv (scFv, V domains shown)
VH: QVQLVQSGAEVKKPGASVKVSCKASGYTFSDYYVHWVRQAPGQGLEWMGWINPNSGGTNYAQKFQGRVTMTRDTSTSTVYMELSSLRSEDTAVYYCARGEWFDPWGQGTLVTVSS
VL: B1 VL with T31S, S53T, R55Q, N93S, Y96F, Q100P, L104V, E105D
As to B5, the binding result is given as “binds”.

B6: G2(1D03) scFv (scFv, V domains shown)
VH: B5 VH with S30T, D31R, Y33T, V34I, H35N, T58A, E100D
VL: B1 VL with S53T, R55Q, N93S, G99A
As for B6, the binding result is listed as “binds”.

B7: G2(1G12) scFv (scFv, V domains shown)
VH: B5 VH with S30T, D31S, Y33L, V34M, N52S, E100D
VL: B1 VL with R24Q, S28D, T31N, W32Y, A34N, A50G, S53R, R55Q, N93S
Turning to B7, the binding result is reported as “binds”.

B8: G2(1D07) scFv (scFv, V domains shown)
VH: QVQLVQSGAEVKKPGASVKVSCKASGYTFTSYGISWVRQAPGQGLEWMGWISAYNGYTNYAQNLQGRVTMTRDTSTSTVYMELSSLRSEDTAVYYCARDQFYGGNSGGHDYWGQGTLVTVSS
VL: B1 VL with R24Q, S28D, T31N, W32Y, A34N, R55Q, N93S, Y96L, Q100G
For the molecule B8, the binding result was “binds”.

B9: G2(1E05) scFv (scFv, V domains shown)
VH: QVQLVQSGAEVKKPGASVKVSCKASGYTFTDYNMHWVRQAPGQGLEWMGWMNPNSGGTNYAQKFQGRVTMTRDTSTSTVYMELSSLRSEDTAVYYCAREEDYWGQGTLVTVSS
VL: B1 VL with S30G, T31R, R55Q, N93S, T97S, L104V
Regarding B9, the binding result is reported as “binds”.

B10: G2(2H10) scFv (scFv, V domains shown)
VH: QVQLVQSGAEVKKPGASVKVSCKASGYSFTRYNMHWVRQAPGQGLEWMGWINPNSGGTNYAQKFQGRVTMTRDTSTSTVYMELSSLRSEDTAVYYCARDGYSGLDVWGKGTTVTVSS
VL: B1 VL with T31S, A50G, R55Q, N93S, T94V, T97S
For B10, the binding result is reported as “binds”.

B11: G2(2C06) scFv (scFv, V domains shown)
VH: QVQLVQSGAEVKKPGASVKVSCKSSGYSFDSYVVNWVRQAPGQGLEWMGWINPNSGGTNYAQKFQGRVTMTRDTSTSTVYMELSSLRSEDTAVYYCARDWVLDYWGQGTLVTVSS
VL: B1 VL with S28T, T31S, R55Q, N93S, Y96F, Q100P, L104V, E105D
With B11, the binding result is recorded as “binds”.

B12: G2(1C09) scFv (scFv, V domains shown)
VH: QVQLVQSGAEVKKPGASVKVSCKASGYTFSSYNMHWVRQAPGQGLEWMGWINGNTGGTNYAQKFQGRVTMTRDTSTSTVYMELSSLRSEDTAVYYCARGVNVDDFDYWGQGTLVTVSS
VL: B1 VL with S28T, T31N, W32Y, A34N, S53N, R55Q, N93S, Y96Q, L104V
Take B12: the binding result is given as “binds”.

B13: G2(2D04) scFv (scFv, V domains shown)
VH: QVQLVQSGAEVKKPGASVKVSCKASGYTFSNFLINWVRQAPGQGLEWMGWINPNSGGTNYAQKFQGRVTMTRDTSTSTVYMELSSLRSEDTAVYYCASERELPFDIWGQGTMVTVSS
VL: B1 VL with T31S, L33V, A50G, S53N, R55E, N93S, T97S
For B13, the binding result is “binds”.

B14: G2(2A09) scFv (scFv, V domains shown)
VH: QVQLVQSGAEVKKPGASVKVSCKASGGTFSSYAISWVRQAPGQGLEWMGWINPNSGGTNYAQKFQGRVTMTRDTSTSTVYMELSSLRSEDTAVYYCAAMGIAVAGGMDVWGQGTLVTVSS
VL: B1 VL with T31R, R55Q, N93L, T94P, T97S, L104V
Consider B14, for which the binding result was “binds”.

B15: G2(1B08) scFv (scFv, V domains shown)
VH: QVQLVQSGAEVKKPGASVKVSCKASGYTFTNYHMHWVRQAPGQGLEWMGWIHPDSGGTSYAQKFQGRVTMTRDTSTSTVYMELSSLRSEDTAVYYCARNWNLDYWGQGTLVTVSS
VL: B1 VL with T31N, R55Q, D70Y, N93S, T94S
Turning to B15, the binding result was “binds”.

B16: G2(1C02) scFv (scFv, V domains shown)
VH: B11 VH with S24A, S28T, D30T, V33G, V34I, N35S, D99G, V101E, D103G
VL: B1 VL with T31N, R55Q, N93S, T94A, Q100P, L104V, E105D
B16: the binding result was “binds”.

B17: G2(1E03) scFv (scFv, V domains shown)
VH: QVQLVQSGAEVKKPGASVKVSCKASGYTFTGYYMHWVRQAPGQGLEWMGWMNPNSGNTGYAQKFQGRVTMTRDTSTSTVYMELSSLRSEDTAVYYCATYDDGMDVWGQGTTVTVSS
VL: B1 VL with T31H, W32Y, A34N, A50G, R55Q, N93T, Y96W, K103R
In the case of B17, the binding result is on record as “binds”.

B18: G2(1H10) scFv (scFv, V domains shown)
VH: QVQLVQSGAEVKKPGASVKVSCKASGGTFSSYAISWVRQAPGQGLEWMGWINPNNGGTNYAQKFQGRVTMTRDTSTSTVYMELSSLRSEDTAVYYCARDSGVGMDVWGQGTTVTVSS
VL: B1 VL with T31K, R55Q, N93S, T94A, L104V
Regarding B18, the binding result is recorded as “binds”.

B19: G2(2E03) scFv (scFv, V domains shown)
VH: EVQLLQSGAEVKKPGSSVKVSCKASGGTFSSYAISWVRQAPGQGLEWMGWINPNSGGTISAPNFQGRVTMTRDTSTSTVYMELSSLRSEDTAVYYCARANWLDYWGQGTLVTVSS
VL: B1 VL with T31R, S53T, L54V, R55Q, N93S
As for B19, the binding result was “binds”.

B20: G2(2B08) scFv (scFv, V domains shown)
VH: QVQLVQSGAEVKKPGASVKVSCKASGYTLTSHLIHWVRQAPGQGLEWMGWINPNSGGTNYAQKFQGRVTMTRDTSTSTVYMELSSLRSEDTAVYYCARERRSGMDVWGQGTTVTVSS
VL: B1 VL with S28G, T31N, W32Y, S53R, R55E, N93S, T94I, Y96L, Q100G, L104V
As to B20, the binding result is “binds”.

B21: G2(1B10) scFv (scFv, V domains shown)
VH: EVQLLESGAEVKKPGASVKVSCKASGYTFTSYGISWVRQAPGQGLEWMGWINPYSGGTNYAQKLQGRVTMTRDTSTSTVYMELSSLRSEDTAVYYCARANWLDYWGQGTLVTVSS
VL: B1 VL with T31S, S53T, R55Q, N93S, T94S, Q100P, L104V, E105D
B21: the binding result is listed as “binds”.

B22: G2(1G01) scFv (scFv, V domains shown)
VH: B21 VH with E1Q, L5V, E6Q, I51M, Y54N, L64F, A99G, N100E
VL: B1 VL with S28T, T31S, R55Q, N93G, T94V, L104V
In the case of B22, the binding result was “binds”.

B23: G2(1G03) scFv (scFv, V domains shown)
VH: EVQLLESGAEVKKPGASVKVSCKASGYTFTSYAMNWVRQAPGQGLEWMGWMNPNSGGTKYAQKFQGRVTMTRDTSTSTVYMELSSLRSEDTAVYYCAREGPAALDVWGQGTLVTVSS
VL: DIQMTQSPSSLSASVGDRVTITCRASQGISRWLAWYQQKPGKAPKLLIYAASTLQPGVPSRFSGSGSGTDFTLTISSLQPEDFATYYCQQSYIAPFTFGPGTKVDIK
Regarding B23, the binding result is “binds”.

B24: G2(1C03) scFv (scFv, V domains shown)
VH: B5 VH with S30T, D31T, V34M, G99S, E100D
VL: DIQMTQSPSSLSASVGDRVTITCRASQSVSNWLAWYQQKPGKAPKLLIYAASSLQSGVPSRFSGSGSGTDFTLTISSLQPEDFATYYCQQSYSTPTFGQGTKLEIK
For the molecule B24, the binding result was “binds”.

B25: G2(2A10) scFv (scFv, V domains shown)
VH: EVQLLESGAEVKKPGASVKVSCKASGYSFTDYIVHWVRQAPGQGLEWMGWINPYSGGTKYAQKFQGRVTMTRDTSTSTVYMELSSLRSEDTAVYYCARVLQEGMDVWGQGTLVTVSS
VL: B24 VL with V29I, N31S, W32Y, A34N, A50G, A51V, T94N, L103V
As to B25, the binding result is on record as “binds”.

B26: G2(1A10) scFv (scFv, V domains shown)
VH: QVQLVQSGAEVKKPGASVKVSCKASGGTFSSYAFSWVRQAPGQGLEWMGWINPDTGYTRYAQKFQGRVTMTRDTSTSTVYMELSSLRSEDTAVYYCARGDYTGNWYFDLWGRGTLVTVSS
VL: DIQMTQSPSSLSASVGDRVTITCRASRDIGRAVGWYQQKPGKAPKLLIYAASSLQSGVPSRFSGSGSGTDFTLTISSLQPEDFATYYCQQLDSYPFTFGPGTKVDIK
As for B26, the binding result was “binds”.

B27: G2(1G07) scFv (scFv, V domains shown)
VH: B18 VH with S31N, S35N, N52S, N54Y, N55S, V102S, G103Y, M104F, V106Y, T112L
VL: DIQMTQSPSSLSASVGDRVTITCQASQDISNYLNWYQQKPGKAPKLLIYAASTLQSGVPSRFSGSGSGTDFTLTISSLQPEDFATYYCQQTYAIPLTFGGGTKVEIK
Consider B27, for which the binding result is “binds”.
